Test results published in US20260193679A1, “SYSTEMS AND METHODS FOR MODIFYING A POLYNUCLEOTIDE” (The Children's Medical Center Corporation, priority 2023, published 2026).

Legend:
ATP1A1 = test: Prime editing at ATP1A1 (Q118R) in CD34+ HSPCs; PE and indels quantified by BEAT/TIDE (Sanger) or CRISPResso2 (amplicon sequencing); format: cell-based, human; conditions: for PE2max efficiency: compared to two substitutions (v1), no nicking sgRNA
B2M = test: Prime editing at B2M in CD34+ HSPCs; format: cell-based, human; conditions: PE2max; average, three donors; amplicon sequencing
Text: FIGS. 6A-6D provide schematics and plots showing that modulation of nucleotide metabolism positively interacts with MMR evasion. (FIG. 6A) PE and indel quantification as determined by CRISPResso2 analysis from amplicon sequencing. The MMR evasion strategy based on the installation of additional silent mutations and the epegRNAs used to target the ATP1A1 locus are illustrated. Point mutations are illustrated in orange. 2.5×10^5 HSPCs were electroporated with PE2max RNAs targeting ATP1A1 and cultured in the presence or absence of 50 μM each dN and 25× in-house Vpx VLPs. Genomic DNA was harvested 3 days post-nucleofection. Data are plotted as mean±SEM from n=3 independent biological replicates performed with CD34^+ HSPCs from three different donors. (FIG. 6B) Same as in (FIG. 6A), but HSPCs were electroporated with Vpx mRNA and PE2max RNAs targeting B2M. Data are plotted as mean±SEM from n=3 independent biological replicates performed with CD34^+ HSPCs from three different donors. (FIG. 6C) Same as in (FIG. 6B), but HSPCs were electroporated with Vpx mRNA and PE3max RNAs targeting the HBG1/HBG2 promoters. […]
FIGS. 10A-10C provide a schematic and plots showing that modulation of nucleotide metabolism positively interacts with MMR-evading epegRNAs in quiescent HSPCs. […] (FIG. 10B) PE and indels quantification as determined by BEAT and TIDE analysis from Sanger sequencing. […]

In the case of “PE2: first-generation prime editor mRNA, SEQ ID NO: 67 [reference compound]”, the “frequency of alleles harboring the ATP1A1-Q118R mutation” value (ATP1A1; PE2 mRNA + epegRNA/nicking sgRNA, absence of VPX VLPs, average, two donors, Sanger sequencing) is reported as 17%.

“PEmax: PEmax prime editor mRNA, SEQ ID NO: 68 [reference compound]” was tested, and the “basal level of editing, ATP1A1-Q118R allele frequency” value (ATP1A1; PEmax mRNA (PE3max RNAs), no dNs, average, three donors) was 41%.

B1: original B2M epegRNA: synthetic epegRNA to knockout B2M, single nucleotide substitution; SEQ ID NO: 12 (nucleic acid)
guide: GAGUAGCGCGAGCACAGCUAGUUUUAGAGCUAGAAAUAGCAAGUUAAAAUAAGGCUAGUCCGUUAUCAACUUGAAAAAGUGGCACCGAGUCGGUGCUCCGUGGCCUGAGCUGUGCUCGCGCCGCGGUUCUAUCUAGUUACGCGUUAAACCAACUAGAAUUU
modifications: modified_base 1 OTHER; 2'-O-methyl modified nucleotide with phosphorothioate linkage; modified_base 2 OTHER; modified_base 3 OTHER; modified_base 158 OTHER; Nucleotide with phosphorothioate linkage; modified_base 159 OTHER; 2'-O-methyl modified nucleotide with phosphorothio
In the case of B1, the PE efficiency (B2M) is reported as 2%.

B2: ATP1A1-Q118R_v2 epegRNA: synthetic epegRNA, SEQ ID NO: 7; three substitutions, optimized to evade MMR (nucleic acid)
guide: GUUCCUCUUCUGUAGCAGCUGUUUUAGAGCUAGAAAUAGCAAGUUAAAAUAAGGCUAGUCCGUUAUCAACUUGAAAAAGUGGCACCGAGUCGGUGCUAGCAUCAGGGCUGCUACAGAAGAGCGCGGUUCUAUCUAGUUACGCGUUAAACCAACUAGAAUUU
modifications: modified_base 1 OTHER; 2'-O-methyl modified nucleotide with phosphorothioate linkage; modified_base 2 OTHER; modified_base 3 OTHER; modified_base 158 OTHER; Nucleotide with phosphorothioate linkage; modified_base 159 OTHER; 2'-O-methyl modified nucleotide with phosphorothio
notes: three substitutions, optimized to evade MMR
B2 was tested, and the PE2max efficiency (ATP1A1) was “marked increase” and the “level of improvement by Vpx mRNA co-delivery and dN supplementation” value (ATP1A1; quiescent HSPCs, compared with HBB and B2M epegRNAs) was “highest level of improvement”.

B3: v3 epegRNA: synthetic epegRNA, SEQ ID NO: 8; four substitutions (+3 TTGG to CCTA) (nucleic acid)
guide: GUUCCUCUUCUGUAGCAGCUGUUUUAGAGCUAGAAAUAGCAAGUUAAAAUAAGGCUAGUCCGUUAUCAACUUGAAAAAGUGGCACCGAGUCGGUGCUAGCAUUAGGGCUGCUACAGAAGAGCGCGGUUCUAUCUAGUUACGCGUUAAACCAACUAGAAUUU
modifications: modified_base 1 OTHER; 2'-O-methyl modified nucleotide with phosphorothioate linkage; modified_base 2 OTHER; modified_base 3 OTHER; modified_base 158 OTHER; Nucleotide with phosphorothioate linkage; modified_base 159 OTHER; 2'-O-methyl modified nucleotide with phosphorothio
In the case of B3, the “precise prime editing allele frequency” value (ATP1A1; PE2max, without Vpx VLPs and dNs, average, amplicon sequencing) is reported as 20.1% and the PE2max efficiency (ATP1A1) is reported as “marked increase”.
